Reference: patent US20210380703A1 (RIGEL PHARMACEUTICALS, published 2021)

What was measured:
[1] = molecular target: T1, biotinylated goat anti-human kappa light chain; experiment: ELISA; positive control
T1 construct: Positive control of the ELISA
In short: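 Monoclonal antibodies were first applied to human or mouse ACVR2A, alongside biotinylated goat anti-human kappa light chain (positive control) and human Fc (negative control); binding was then determined by ELISA.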

[2] = molecular target: mouse ACVR2A (mouse, UniProt P27038 20-135, limits assumed); experiment: ELISA
In short: (§1)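 Binding signal was read by ELISA after ACVR2A-specific monoclonal antibodies were tested against human ACVR2A and mouse ACVR2A, with human Fc as the negative control.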

[3] = molecular target: human ACVR2A (human, UniProt P27037 20-135, limits assumed); experiment: ELISA
In short: as §1
Note: test concentration or dose not given here.

human ACVR2A, sequence (P27037 20-135 limits assumed): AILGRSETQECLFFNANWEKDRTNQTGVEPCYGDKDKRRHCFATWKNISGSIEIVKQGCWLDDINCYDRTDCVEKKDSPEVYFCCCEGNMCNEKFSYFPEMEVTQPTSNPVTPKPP
mouse ACVR2A, sequence (P27038 20-135 limits assumed): as the sequence (P27037 20-135 limits assumed) above, with K20R, V73I counted along it

| Binder | optical density [1] [OD] | optical density [2] [OD] | optical density [3] [OD] |
| --- | --- | --- | --- |
| 374_C05 (antibody, V domains shown, VH/VL only) VH: EVQLLESGGGLVQPGGSLRLSCAASGFTFDSYSMNWVRQAPGKGLEWVAGINYNSGYKSYADSVKGRFTISRDNSKNTLYLQMNSLRAEDTAVYYCARSATWHDTHLDYWGQGTLVTVSS VL: DIQMTQSPSSLSASVGDRVTITCRASQSIIRYLNWYQQKPGKAPKLVIYAATSRASGVPSRFSGSGSGTDFTLTISSLQPEDFATYYCQQSYDNPLTFGGGTKVEIK | 3.18 | 3.69 | 3.7 |
| 374_C02 (antibody, V domains shown, VH/VL only) VH: EVQLLESGGGLVQPGGSLRLSCAASGFTFDSYSMNWVRQAPGKGLEWVSGINYNGGYTGYADSVKGRFTISRDNSKNTLYLQMNSLRAEDTAVYYCARSATWHDTHLDYWGQGTLVTVSS VL: DIQMTQSPSSLSASVGDRVTITCRASQSILSYLNWYQQKPGKAPKLLIYAATSRHSGVPSRFSGSGSGTDFTLTISSLQPEDFATYYCQQSYDSPLTFGGGTKVEIK | 3.06 | 3.64 | 3.68 |
| 374_C08 (antibody, V domains shown, VH/VL only) VH: EVQLLESGGGLVQPGGSLRLSCAASGFTFDSYGMNWVRQAPGKGLEWVSGINYNSGYKSYADSVKGRFTISRDNSKNTLYLQMNSLRAEDTAVYYCARSATWHDTALDYWGQGTLVTVSS VL: DIQMTQSPSSLSASVGDRVTITCRASQSILSYVNWYQQKPGKAPKLLIYAVTSRASGVPSRFSGSGSGTDFTLTISSLQPEDFATYYCQQSYDSPLTFGGGTKVEIK | 3.18 | 3.42 | 3.29 |
| 374_E08 (antibody, V domains shown, VH/VL only) VH: EVQLLESGGGLVQPGGSLRLSCAASGFTFSSYGMNWVRQAPGKGLEWVAGINYNGGYKSYADSVKGRFTISRDNSKNTLYLQMNSLRAEDTAVYYCARSANWHDTALDYWGQGTLVTVSS VL: DIQMTQSPSSLSASVGDRVTITCRASQSILSYLNWYQQKPGKAPKLLIYAATSRHSGVPSRFSGSGSGTDFTLTISSLQPEDFATYYCQQSYDLPLTFGGGTKVEIK | 3.26 | 3.52 | 3.5 |
| 373_H06 (antibody, V domains shown, VH/VL only) VH: EVQLLESGGGLVQPGGSLRLSCAASGFTFSSYGMHWVRQAPGKGLEWVAGINYNGGYTSYADSVKGRFTISRDNSKNTLYLQMNSLRAEDTAVYYCARSATWHDTHLDYWGQGTLVTVSS VL: DIQMTQSPSSLSASVGDRVTITCRASQSIISYVNWYQQKPGKAPKLLIYAATSLASGVPSRFSGSGSGTDFTLTISSLQPEDFATYYCQQSYDLPLTFGGGTKVEIK | 3.3 | 3.15 | 3 |
| 374_E02 (antibody, V domains shown, VH/VL only) VH: EVQLLESGGGLVQPGGSLRLSCAASGFTFSSYSMNWVRQAPGKGLEWVSGINYNGGYTSYADSVKGRFTISRDNSKNTLYLQMNSLRAEDTAVYYCARSANWHDTALDYWGQGTLVTVSS VL: DIQMTQSPSSLSASVGDRVTITCRASQSILSYLNWYQQKPGKAPKLLIYAATSLASGVPSRFSGSGSGTDFTLTISSLQPEDFATYYCQQSYDLPLTFGGGTKVEIK | 3.18 | 3.33 | 3.23 |
| 374_D12 (antibody, V domains shown, VH/VL only) VH: EVQLLESGGGLVQPGGSLRLSCAASGFTFDSYSMNWVRQAPGKGLEWVSGINYNGGYTGYADSVKGRFTISRDNSKNTLYLQMNSLRAEDTAVYYCARSATWHDTHLDYWGQGTLVTVSS VL: DIQMTQSPSSLSASVGDRVTITCRASQSIVSYVNWYQQKPGKAPKLVIYAATSRASGVPSRFSGSGSGTDFTLTISSLQPEDFATYYCQQSYDLPLTFGGGTKVEIK | 3.09 | 3.28 | 3.55 |
| 373_G05 (antibody, V domains shown, VH/VL only) VH: EVQLLESGGGLVQPGGSLRLSCAASGFTFSSYSMNWVRQAPGKGLEWVAGINYNGGYTSYADSVKGRFTISRDNSKNTLYLQMNSLRAEDTAVYYCARSATWHDTHLDYWGQGTLVTVSS VL: DIQMTQSPSSLSASVGDRVTITCRASQSILSYLNWYQQKPGKAPKLLIYAATSLASGVPSRFSGSGSGTDFTLTISSLQPEDFATYYCQQSYELPLTFGGGTKVEIK | 3.22 | 3.62 | 3.61 |

The remaining lines, values ahead:

| optical density [1] [OD] | optical density [2] [OD] | optical density [3] [OD] | Binder |
| --- | --- | --- | --- |
| 3.3 | 3.55 | 3.56 | 373_E04 (antibody, V domains shown, VH/VL only) VH: EVQLLESGGGLVQPGGSLRLSCAASGFTFDSYSMNWVRQAPGKGLEWVAGINYNGGYTSYADSVKGRFTISRDNSKNTLYLQMNSLRAEDTAVYYCARSATWHDTHLDYWGQGTLVTVSS VL: DIQMTQSPSSLSASVGDRVTITCRASQSILTYVNWYQQKPGKAPKLLIYAATSRASGVPSRFSGSGSGTDFTLTISSLQPEDFATYYCQQSYNSPLTFGGGTKVEIK |
| 3.21 | 3.59 | 3.64 | 374_C11 (antibody, V domains shown, VH/VL only) VH: EVQLLESGGGLVQPGGSLRLSCAASGFTFSSYSMNWVRQAPGKGLEWVAGINYNSGYKGYADSVKGRFTISRDNSKNTLYLQMNSLRAEDTAVYYCARSATWHDTHLDYWGQGTLVTVSS VL: DIQMTQSPSSLSASVGDRVTITCRASQSILTYLNWYQQKPGKAPKLLIYAATSRASGVPSRFSGSGSGTDFTLTISSLQPEDFATYYCQQSYESPLTFGGGTKVEIK |
| 3.21 | 3.6 | 3.65 | 373_F03 (antibody, V domains shown, VH/VL only) VH: EVQLLESGGGLVQPGGSLRLSCAASGFTFDSYSMNWVRQAPGKGLEWVANINYNSGYTGYADSVKGRFTISRDNSKNTLYLQMNSLRAEDTAVYYCARSATWHDTHLDYWGQGTLVTVSS VL: DIQMTQSPSSLSASVGDRVTITCRASQSILTYVNWYQQKPGKAPKLLIYAATSRHSGVPSRFSGSGSGTDFTLTISSLQPEDFATYYCQQSYDSPLTFGGGTKVEIK |
| 3.2 | 3.58 | 3.63 | 374_E07 (antibody, V domains shown, VH/VL only) VH: EVQLLESGGGLVQPGGSLRLSCAASGFTFSDYSMNWVRQAPGKGLEWVAGINYNGGYTSYADSVKGRFTISRDNSKNTLYLQMNSLRAEDTAVYYCARSANWHDTALDYWGQGTLVTVSS VL: DIQMTQSPSSLSASVGDRVTITCRASQSIITYVNWYQQKPGKAPKLVIYAATSRASGVPSRFSGSGSGTDFTLTISSLQPEDFATYYCQQSYNTPLTFGGGTKVEIK |
| 3.19 | 3.25 | 3.24 | 373_H10 (antibody, V domains shown, VH/VL only) VH: EVQLLESGGGLVQPGGSLRLSCAASGFTFSSYSMNWVRQAPGKGLEWVAGINYNGGYTGYADSVKGRFTISRDNSKNTLYLQMNSLRAEDTAVYYCARSATWHDTHLDYWGQGTLVTVSS VL: DIQMTQSPSSLSASVGDRVTITCRASQSILSYVNWYQQKPGKAPKLLIYAATSRASGVPSRFSGSGSGTDFTLTISSLQPEDFATYYCQQSYSLPLTFGGGTKVEIK |
| 3.19 | 3.65 | 3.62 | 374_B09 (antibody, V domains shown, VH/VL only) VH: EVQLLESGGGLVQPGGSLRLSCAASGFTFSSYSMNWVRQAPGKGLEWVSGINYNGGYKSYADSVKGRFTISRDNSKNTLYLQMNSLRAEDTAVYYCARSATWHDTHLDYWGQGTLVTVSS VL: DIQMTQSPSSLSASVGDRVTITCRASQSIVRYLNWYQQKPGKAPKLVIYAATSLASGVPSRFSGSGSGTDFTLTISSLQPEDFATYYCQQSYELPLTFGGGTKVEIK |
| 3.22 | 3.64 | 3.71 | 373_E06 (antibody, V domains shown, VH/VL only) VH: EVQLLESGGGLVQPGGSLRLSCAASGFTFDSYSMNWVRQAPGKGLEWVAGINYNSGYKSYADSVKGRFTISRDNSKNTLYLQMNSLRAEDTAVYYCARSATWHDTHLDYWGQGTLVTVSS VL: DIQMTQSPSSLSASVGDRVTITCRASQSILRYLNWYQQKPGKAPKLLIYAATSLHSGVPSRFSGSGSGTDFTLTISSLQPEDFATYYCQQSYDNPLTFGGGTKVEIK |
| 3.17 | 3.74 | 3.74 | 374_C04 (antibody, V domains shown, VH/VL only) VH: EVQLLESGGGLVQPGGSLRLSCAASGFTFSSYSMNWVRQAPGKGLEWVAGINYNSGYKSYADSVKGRFTISRDNSKNTLYLQMNSLRAEDTAVYYCARSATWHDTHLDYWGQGTLVTVSS VL: DIQMTQSPSSLSASVGDRVTITCRASQSILTYLNWYQQKPGKAPKLLIYAASSLQSGVPSRFSGSGSGTDFTLTISSLQPEDFATYYCQQSYELPLTFGGGTKVEIK |
| 3.18 | 3.57 | 3.56 | 374_E05 (antibody, V domains shown, VH/VL only) VH: EVQLLESGGGLVQPGGSLRLSCAASGFTFSSYSMNWVRQAPGKGLEWVAGINYNGGYTSYADSVKGRFTISRDNSKNTLYLQMNSLRAEDTAVYYCARSANWHDTALDYWGQGTLVTVSS VL: DIQMTQSPSSLSASVGDRVTITCRASQSILSFVNWYQQKPGKAPKLVIYAATSRASGVPSRFSGSGSGTDFTLTISSLQPEDFATYYCQQSYNLPLTFGGGTKVEIK |
| 2.81 | 3.72 | 3.65 | 374_A11 (antibody, V domains shown, VH/VL only) VH: EVQLLESGGGLVQPGGSLRLSCAASGFTFSDYSMNWVRQAPGKGLEWVANINYNSGYKGYADSVKGRFTISRDNSKNTLYLQMNSLRAEDTAVYYCARSATWHDTHLDYWGQGTLVTVSS VL: DIQMTQSPSSLSASVGDRVTITCRASQSILSYVNWYQQKPGKAPKLVIYAATSRASGVPSRFSGSGSGTDFTLTISSLQPEDFATYYCQQSYSSPLTFGGGTKVEIK |
| 2.99 | 3.2 | 3.06 | 374_D02 (antibody, V domains shown, VH/VL only) VH: EVQLLESGGGLVQPGGSLRLSCAASGFTFDSYSMNWVRQAPGKGLEWVAGINYNSGYTSYADSVKGRFTISRDNSKNTLYLQMNSLRAEDTAVYYCARSATWHDTHLDYWGQGTLVTVSS VL: DIQMTQSPSSLSASVGDRVTITCRASQSISTYVNWYQQKPGKAPKLLIYAVTSLASGVPSRFSGSGSGTDFTLTISSLQPEDFATYYCQQSYDSPLTFGGGTKVEIK |
